Results on 1 molecule are retold here after paper PMC9015690.

For the test, the target named is CXCL12 locked dimer (CXCL12-LD) (UniProt P48061). Put plainly: ITC. On the technique in general: Isothermal titration calorimetry measures the heat released or taken up as one component is titrated into another.
CXCL12 locked dimer (CXCL12-LD), sequence (P48061 22-89 L57C/A86C): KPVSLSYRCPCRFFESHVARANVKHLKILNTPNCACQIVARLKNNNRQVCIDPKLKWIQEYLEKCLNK

B1: ACKR1^N-term, sixty-amino acid peptide corresponding to the extracellular N-terminus of ACKR1 (domain or fragment)
chain: MGNALHRAELSPSTENSSQLDFEDVWNSSYGVNDSFPDGDYGANLEAAAPAHSANLLDDS
On to B1, for which the KD of the first transition (sequential binding model) is 6 nM and the stoichiometry N (as a rule, the number of molecules, sites or subunits per partner or assembly) was found to be 1.
